Holding throughout (settings): 4% glycerol, 1 mM MgCl2, 1 mM DTT, 50 mM NaCl, 10 mM Tris-HCl pH 7.5, room temperature 30 min; EMSA on 4% native PAGE in 45 mM Tris-borate, 2 mM EDTA pH 8.3 at …
Background: In EMSA bound probe runs differently from free probe, usually more slowly.

The subject of series [1] is anti-FLAG M2 antibody (mouse). The experiment in a line: competition.
In series [2] the test system is anti-FLAG M2 antibody (mouse). The series can be described thus: bead pull-down, competition.
Series [3] concerns anti-FLAG M2 antibody (mouse). The experiment in a line: EMSA.

These results are taken from article PMC3195435.

Regarding TCGATTTCCTTAGTTGTCTTCCTTAGTGAG [ABA], the binding signal (% inhibition of Flag-TRF2dB capture) in series [1] was found to be 45. For the same sequence, the IC50 in series [2] turned out to be 96 nM. In series [3], this sequence returned a Kd of 80 nM.

With “TCGATTTCCTTAGTTGTCTTCCTTAGTTGTCTTCCTTAGTTGTCTTCCTTAGTGAG [3XABA]”, in series [1], the binding signal (% inhibition of Flag-TRF2dB capture) stood at 62 and the binding signal (% release of bound Flag-TRF2dB) amounted to 36.

A word on the IC50: it is the point on the concentration scale where inhibition reaches its midpoint. One may read the Kd as the equilibrium constant for the complex coming apart. Higher therefore signals weaker binding.
